Experimental data as given in patent US12006513B2, “Methods for the long-term expansion of granulocyte-macrophage progenitors and applications thereof” (University of Southern California, priority 2018, dated 2024).

Experiments:
[1] = test system: bone marrow cells isolated from adult C57BL/6 mice; assay: Small molecule library screens on bone marrow cells in serum free N2B27 medium; format: cell-based, mouse; settings: second screening, together with GDC0879
ex vivo expanded GMPs = assay: Macrophage differentiation of ex vivo expanded GMPs; format: cell-based, mouse; settings: RPMI 1640+10% FBS+20 ng/mL MCSF, 7 days
Protocol: FIG. 3A-I presents results of macrophages differentiation from GMPs. […] P7 GMPs were cultured in RPMI 1640+10% FBS+20 ng/mL MCSF for 7 days. Mature macrophages were re-plated, fixed and stained for CD11b and F4/80. (B) Provides the results of an in vitro functional test of the differentiated macrophages. 1×10^5 GMPs (P7) or 1×10^6 whole BM cells were seeded into 1 well of 6-well plate in RPMI 1640+10% FBS+20 ng/mL MCSF. 7 days later, mature bone marrow-derived macrophages (BMM) and GMP-derived macrophages (GMPM) were trypsinized, counted and reseeded into 48-well plate at 1×10^5 cells per well in RPMI 1640+10% FBS. After overnight, cells were stimulated with 500 ng/mL LPS for 6 or 24 h. The inflammatory cytokines in the supernatant were measured by ELISA. (C) Provides images of another in vitro functional test of the differentiated macrophages. Green: E. coli-GFP. Red: tdTomato^+ macrophages. Top image, GFP labeled E. coli were co-cultured with tdTomato^+ GMPs-derived macrophages. Consecutive pictures were taken each 30′ under Zeiss LSM-780 confocal microscope for 1 h. […] (E), cells were harvested and FITC positive cells were analyzed by using BD Arial flow cytometry. […]
Long-term ex vivo expanded GMPs can differentiate into functional and mature macrophages. […] After 6 or 24 h, the supernatant was harvested and the concentrations of inflammatory cytokines TNFα, IL6 and IL10 by ELISA were measured.

mouse GMP = assay: Granulocyte differentiation of ex vivo expanded GMPs; format: cell-based; settings: RPMI 1640+10% FBS, 20 ng/mL GCSF, 72 h
Protocol: Long-term ex vivo expanded GMPs can differentiate into functional and mature granulocytes. Granulocyte colony-stimulating factor (G-CSF) is a known hematopoietic growth factor that regulates neutrophils production in the bone marrow. G-CSF was used to induce mouse GMP differentiation towards the neutrophil lineage. After culturing for 3 weeks in E7^+SCF/GDC/CHIR conditions, GMPs were re-plated in RPMI 1640+10% FBS medium and stimulated with 20 ng/mL of GCSF. Seventy-two hours after stimulation with GCSF, GMPs differentiated into cells that morphologically resembled granulocytes (e.g., see FIG. 3F). To further verify the identity of these cells, the cells were harvested and stained with Gr1 and CD115 antibodies and analyzed by flow cytometer. Granulocytes are Gr1^+ and CD115^−.

Molecule: O=C(NCCCn1ccnc1)c1cc(-c2ccco2)on1 [SKL2001]
- expansion of the uniform round-shaped cells [1]: acted synergistically with GDC0879 to promote the expansion

B1: MCSF: macrophage colony-stimulating factor, used at 20 ng/mL for macrophage differentiation (protein, UniProt P09603 33-554, looked up)
Macrophage colony-stimulating …: EEVSEYCSHMIGSGHLQSLQRLIDSQMETSCQITFEFVDQEQLKDPVCYLKKAFLLVQDIMEDTMRFRDNTPNAIAIVQLQELSLRLKSCFTKDYEEHDKACVRTFYETPLQLLEKVKNVFNETKNLLDKDWNIFSKNCNNSFAECSSQDVVTKPDCNCLYPKAIPSSDPASVSPHQPLAPSMAPVAGLTWEDSEGTEGSSLLPGEQPLHTVDPGSAKQRPPRSTCQSFEPPETPVVKDSTIGGSPQPRPSVGAFNPGMEDILDSAMGTNWVPEEASGEASEIPVPQGTELSPSRPGGGSMQTEPARPSNFLSASSPLPASAKGQQPADVTGTALPRVGPVRPTGQDWNHTPQKTDHPSALLRDPPEPGSPRISSLRPQGLSNPSTLSAQPQLSRSHSSGSVLPLGELEGRRSTRDRRSPAEPEGGPASEGAARPLPRFNSVPLTDTGHERQSEGSFSPQLQESVFHLLVPSVILVLLAVGGLLFYRWRRRSHQEPQRADSPLEQPEGSPLTQDDRQVELPV
- cells expressing macrophage markers CD11b and F4/80 (ex vivo expanded GMPs): almost all the cells expressed both CD11b and F4/80

B2: GCSF: granulocyte colony-stimulating factor, used at 20 ng/mL for granulocyte differentiation (protein, UniProt P09919 31-207, looked up)
Granulocyte …: TPLGPASSLPQSFLLKCLEQVRKIQGDGAALQEKLVSECATYKLCHPEELVLLGHSLGIPWAPLSSCPSQALQLAGCLSQLHSGLFLYQGLLQALEGISPELGPTLDTLQLDVADFATTIWQQMEELGMAPALQPTQGAMPAFASAFQRRAGGVLVASHLQSFLEVSYRVLRHLAQP
- cells derived from GMPs that were Gr1+ CD115− (mouse GMP): more than 80%
